Measured values from publication PMC9303464.

Assays:
[1] = target: NepR2 (Sphingopyxis granuli TFA); assay: SPR
[2] = target: NepR1 (Sphingopyxis granuli TFA); assay: SPR

Kd [1] [nM] | Kd [2] [nM] | Substance
23.5 | 14.2 | EcfG2 (natural protein)
38.8 |  | EcfG1 (natural protein)
